Patent US20170174769A1 (Regeneron, published 2017)

Key:
[1] = molecular target: cell-surface human FGFR1c (amino acids 1-731 of NP_075594) with cell-surface human KLB on … (human, UniProt P11362 22-822); assay: cell-based or functional assay
[2] = molecular target: T1, full-length human FGFR1c on HEK293/hFGFR1c/SRE-luc cells (human, UniProt P11362 22-822); assay: FACS on stable HEK293 cells, 33 nM
T1 construct: amino acids 1-733 of NP_075593
Experimental: (§1) For the FACS analysis, HEK293 parental, HEK293/hFGFR1c, HEK293/hFGFR1c/hKLB, and HEK293/mFGFR1c/mKLB cells were dissociated and plated onto 96-well v-bottom plates at 0.5×10⁶ cells/well in 2% FBS/PBS. […] Control mAb2 was tested at a concentration of 965 nM. After primary protein incubation cells were washed and incubated with 3.75 μg/mL fluorescently conjugated secondary antibodies for 30 minutes at 4° C. Cells were filtered and analyzed on Accuri™ 6 Flow Cytometer. Unstained and secondary antibody alone controls were also tested for all cell lines. The results were analyzed using FlowJo version 9.52 software and geometric mean (Geom. Mean) of fluorescence for viable cells were determined. Geom. mean of fluorescence for each antibody was then normalized to Geom. mean of unstained cells to obtain relative binding of antibody (binding ratios) per each cell type.

[3] = molecular target: T2, human KLB and human FGFR1c co-expressed on HEK293/hKLB/hFGFR1c/SRE-luc cells (human, UniProt Q86Z14 1-1044; P11362 22-822); assay: FACS on stable HEK293 cells, 33 nM
T2 construct: two receptors co-expressed on one cell line; also called KLB/FGFR1c coreceptor; FGF21R
T2 sequence (Q86Z14 whole entry, chain 1 of 2): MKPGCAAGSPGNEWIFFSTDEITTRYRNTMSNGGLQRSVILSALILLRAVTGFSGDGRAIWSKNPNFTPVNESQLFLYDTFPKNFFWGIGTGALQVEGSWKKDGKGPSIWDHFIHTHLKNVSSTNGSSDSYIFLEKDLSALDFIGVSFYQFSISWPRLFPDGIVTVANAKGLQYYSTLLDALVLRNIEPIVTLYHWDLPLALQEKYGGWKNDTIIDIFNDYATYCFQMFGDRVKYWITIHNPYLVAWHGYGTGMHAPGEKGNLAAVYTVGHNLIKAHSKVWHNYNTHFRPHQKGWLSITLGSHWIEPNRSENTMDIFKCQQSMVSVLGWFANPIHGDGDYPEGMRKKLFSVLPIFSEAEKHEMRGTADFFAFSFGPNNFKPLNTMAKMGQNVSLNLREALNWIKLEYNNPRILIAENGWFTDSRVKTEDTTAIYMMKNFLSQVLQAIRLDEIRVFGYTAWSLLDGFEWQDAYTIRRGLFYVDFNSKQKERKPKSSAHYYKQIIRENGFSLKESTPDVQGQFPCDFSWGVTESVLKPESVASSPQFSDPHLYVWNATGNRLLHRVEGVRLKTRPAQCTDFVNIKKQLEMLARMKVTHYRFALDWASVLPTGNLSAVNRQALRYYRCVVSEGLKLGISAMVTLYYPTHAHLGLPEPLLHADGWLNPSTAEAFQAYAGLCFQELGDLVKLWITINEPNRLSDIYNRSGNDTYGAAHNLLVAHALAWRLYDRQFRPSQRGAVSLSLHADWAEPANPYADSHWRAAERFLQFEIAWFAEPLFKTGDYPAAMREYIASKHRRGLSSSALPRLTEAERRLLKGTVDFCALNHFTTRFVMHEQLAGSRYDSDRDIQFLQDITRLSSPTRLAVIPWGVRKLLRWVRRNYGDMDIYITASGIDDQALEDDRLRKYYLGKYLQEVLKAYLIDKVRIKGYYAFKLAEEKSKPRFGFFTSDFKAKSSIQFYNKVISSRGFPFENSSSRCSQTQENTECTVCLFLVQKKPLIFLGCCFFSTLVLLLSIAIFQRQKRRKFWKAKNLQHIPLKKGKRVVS
T2 sequence (P11362 other isoform, or with tags, fused parts or gaps limits assumed, chain 2 of 2): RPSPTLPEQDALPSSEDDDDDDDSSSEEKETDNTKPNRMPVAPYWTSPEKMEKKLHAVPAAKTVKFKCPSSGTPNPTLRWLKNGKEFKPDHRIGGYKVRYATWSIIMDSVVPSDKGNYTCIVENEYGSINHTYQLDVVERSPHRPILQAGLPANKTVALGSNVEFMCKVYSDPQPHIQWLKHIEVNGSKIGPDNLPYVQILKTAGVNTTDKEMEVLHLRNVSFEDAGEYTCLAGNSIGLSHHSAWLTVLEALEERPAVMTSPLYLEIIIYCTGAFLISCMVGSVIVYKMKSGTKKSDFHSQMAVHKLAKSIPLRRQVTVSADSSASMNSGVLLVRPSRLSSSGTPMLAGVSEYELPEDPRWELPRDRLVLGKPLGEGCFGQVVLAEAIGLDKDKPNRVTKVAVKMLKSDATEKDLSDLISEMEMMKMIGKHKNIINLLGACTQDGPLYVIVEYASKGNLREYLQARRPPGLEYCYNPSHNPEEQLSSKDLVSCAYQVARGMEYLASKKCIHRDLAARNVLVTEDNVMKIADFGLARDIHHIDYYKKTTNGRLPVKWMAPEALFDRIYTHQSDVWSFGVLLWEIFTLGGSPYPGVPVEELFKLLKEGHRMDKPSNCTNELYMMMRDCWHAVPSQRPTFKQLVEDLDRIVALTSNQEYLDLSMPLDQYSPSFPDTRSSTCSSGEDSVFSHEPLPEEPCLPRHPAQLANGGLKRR
Experimental: as §1

cell-surface human FGFR1c (amino acids 1-731 of NP_075594) with cell-surface human KLB on …, sequence (P11362 22-822, chain 1 of 2): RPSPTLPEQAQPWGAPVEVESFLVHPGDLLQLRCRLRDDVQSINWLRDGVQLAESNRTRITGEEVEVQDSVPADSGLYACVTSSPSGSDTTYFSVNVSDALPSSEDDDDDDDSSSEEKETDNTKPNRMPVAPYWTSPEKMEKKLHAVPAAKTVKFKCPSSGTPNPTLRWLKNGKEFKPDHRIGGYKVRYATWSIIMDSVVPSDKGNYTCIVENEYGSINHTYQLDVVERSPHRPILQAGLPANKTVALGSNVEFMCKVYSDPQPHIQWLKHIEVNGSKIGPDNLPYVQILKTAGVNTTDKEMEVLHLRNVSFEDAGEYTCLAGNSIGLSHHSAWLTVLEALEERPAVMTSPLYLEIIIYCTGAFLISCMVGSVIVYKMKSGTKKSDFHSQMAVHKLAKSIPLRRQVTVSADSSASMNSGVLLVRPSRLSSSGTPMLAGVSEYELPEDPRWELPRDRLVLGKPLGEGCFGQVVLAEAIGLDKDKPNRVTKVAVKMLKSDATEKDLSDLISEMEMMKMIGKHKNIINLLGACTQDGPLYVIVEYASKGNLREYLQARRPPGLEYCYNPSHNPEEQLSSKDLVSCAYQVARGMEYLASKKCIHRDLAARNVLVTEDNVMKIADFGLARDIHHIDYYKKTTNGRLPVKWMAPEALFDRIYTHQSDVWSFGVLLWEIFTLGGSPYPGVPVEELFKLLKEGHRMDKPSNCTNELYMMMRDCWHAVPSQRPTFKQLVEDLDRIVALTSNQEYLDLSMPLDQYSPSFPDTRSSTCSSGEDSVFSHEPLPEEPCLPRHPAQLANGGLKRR
cell-surface human FGFR1c (amino acids 1-731 of NP_075594) with cell-surface human KLB on …, sequence (chain, as listed by the source, chain 2 of 2): as the sequence (Q86Z14 whole entry, chain 1 of 2) above
T1 sequence (P11362 other isoform, or with tags, fused parts or gaps limits assumed): as the sequence (P11362 other isoform, or with tags, fused parts or gaps limits assumed, chain 2 of 2) above

B1: H1H8900P (antibody, V domains shown)
VH: QVQLVESGGGVVQPGRSLRLSCVASGFTFSSYGMHWVRQAPGKGLEWVAVISFDGSNKYYADSVKGRFTISRDNSKNTLYLQMNSLRPADTAVYYCAKDRSNYYYFGMDVWGQGTTVTVSS
VL: DIVMTQTPLSLPVTPGEPASISCRSSQSLLDSDDGNTYLDWYLQKPGQSPQLLIYTLSYRASGVPDRFSGSGSGTDFTLKISRVEAEDVGVYYCMQRIEFPLTFGGGTKVEIK
notes: H1H Fc prefix (human Fc)
% Activation [1]: 0.7% | EC50, SRE-luc activation [1]: 47 nM | MFI Ratio to unstained cells [2]: 2 fold | MFI Ratio to unstained cells [3]: 2 fold
